For this assay, the target named is actin filaments (skeletal muscle) (Gallus gallus), P68139. The conditions noted are these: modification not given.

One molecule from PMC5509211 can be followed below.

B1: mEGFP-Lifeact (peptide)
chain: MGVADLIKKFESISKEE
For the molecule B1, the Kd (in general, the concentration at which binding is half-saturated) worked out at 9.3 µM.
